Assay: yeast display, Sf9 membrane polyspecificity reagent, FACS + sequencing; frameworks hold sequencing errors
How it was run: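 Genes from sorted yeast were amplified by colony PCR, read by MiSeq 2 × 250 sequencing and filtered on CDR length. These cells carried a synthetic nanobody library in Saccharomyces cerevisiae BJ5465 and were sorted by FACS into low and high (top ~1%) gates on anti-HA and streptavidin fluorescence. Polyreactivity is labelled according to the gate of origin.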

Sequence: QVQLVESGGGLVQAGGSLRLSCAASGRIFGDYGMGWYRQAPGKERELVAAISSGGSTNYADSVKGRFTISRDNAKNTVYLQMNSLKPEDTAVYYCAKATYPHEYDYWGQGTQVTVSS
- polyreactivity (PSR sort gate): low polyreactivity

Sequence: QVQLVESGGGLVHAGGTLRLSCAASGSIFARYAMGWYRQAPVKERELVAAISRNGGSTYYADSVKGRFTISRDNAKNTVYLQMNSLNPEDTAVYYCAASYYVLYTREYDYWGQGSQVTVSS
- polyreactivity (PSR sort gate): low polyreactivity

Sequence: QVQLVESGGGLVQAGGSLRLSCAASGSTFSYYAMGWYRQAPGKERELVARISWRGGSTYYADSVKGRFTISRDNAKNTVYLQMNSLKPEDTAVYYCAARRSGTYYGTYKSNGRNYWGQGTQVTVSS
- polyreactivity (PSR sort gate): high polyreactivity

Sequence: QVHLVESGGALVQAGGSLRLSCAASGFIFNHYAMGWYRQAPGKEQEFVAAISWSGGSTYYADSVKGRFTISRDNAKITVYLQMNSLKPEDTAVYYCAAAVWYRGWYRYDYWGQGTQVTVSS
- polyreactivity (PSR sort gate): low polyreactivity

Sequence: QVQLVESGRGLVQAGGSLRISCAASGRTFYSYAMGWYRQAPGKERELVAAITSSGGRTYYADSVKGRFTISRDNAKNTVYLQMNSLKPEDTAVYYCNKLRRSPNSQYYYWGQGTQVTVSS
- polyreactivity (PSR sort gate): high polyreactivity

Sequence: QVQLVESGGGLVQAGGSLRLSCAASGLTLYYYAMGWYRQAPGKERELVAAMSYSGGSTYYADSVKGRFTISRDNAKNPVYLQMNSVKPEDTAVYYCAAVGDSDIRDEYWGQGTQVTVSS
- polyreactivity (PSR sort gate): low polyreactivity

Sequence: QVQLVESGGGLVQAGGSLRLSCAASGIIFWYNAMGWYRQAPGKERELVASISTGGRTYYADSVKGRFTISRDNAKYTVYLQMNSLKPEDTAVYYCAAASRVGFLYYYWGQGTQVTVSS
- polyreactivity (PSR sort gate): low polyreactivity

Sequence: QVQLVESGGGLVQAGGSLRLSCAASGSTFVYYAMGWYRQAPGKERELVAAISWSGTRTYYADSVKGRFTISRDNAKNTVYLQMNSLKPEDTAVYYCATRKQSRSVGYNYWGQGTQVTVSS
- polyreactivity (PSR sort gate): high polyreactivity

Sequence: QVQLVESGGGLVQAGGSLRLSCAASGRIFGRNAMGWYRQAPGKERELVAGISSGGTTDYADSVKGRFTISRDNAKNTVYLQMNSLKPEDTAVYYCNDGYAYDDQTYYLGESDYWGQGTQVTVSS
- polyreactivity (PSR sort gate): low polyreactivity

Sequence: QVQLVESGGGLVQAGGSLRLSCAASGRTFYDNTMGWYRQAPGKERELVAAISRGGSTYADSVEGRFTISRDNAKNTVYLQMNSLKPEDTAVYYCNKRSITTEYGYWGQGTQVTVSS
- polyreactivity (PSR sort gate): low polyreactivity

Sequence: QVQLVESGGGLVHAGGSLRVSCAASGIIFDGNAMGWYRQAPGKERELVAAITASGGSTHYADSVKGRFTISRDNAKNTVYLQMNSLKPEDTAVYYCNKRSRTTGDYDYWGQGTQVTVSS
- polyreactivity (PSR sort gate): low polyreactivity

Sequence: QVQLVESGGGLVQAGGSLRLSCAASGSTFHINAMGWYRQAPGKERELVADINWSGGSTYYADSVKGRFTISRDNAKNTVYLQMNSLKPEDTAVYYCAADVGVFTYSPYDAGEHDYWGQGTQVTVSS
- polyreactivity (PSR sort gate): low polyreactivity

Sequence: QVHLVESGAGLVQAGGSLRLSCPASGSIFFLYPMGWYRQAPGKESELVAAITWRVGSTYYADSVKGRFTISRDNAKNTVYLQMNSLKPEDTAVYYCAAYFLGFQVRYDYWGQGTQVTVSS
- polyreactivity (PSR sort gate): high polyreactivity

Sequence: QLQLVESGGGLVQAGGSLRLSCAASGSIFYKYAMGWYRQAPGKERELVAAITWSGGRTYYADSVKGRFTISRDNAKNTVYLQMNSLIPEDTAVYYCAAVLRRYPGWVSDYNYWGQGTQVTVSS
- polyreactivity (PSR sort gate): high polyreactivity

Sequence: QDQLVESAGGLVQAGGSLRLSCAASGLTFWDYAMGWSRQAPGKERELVAGINTRGTSTYYADSVKGRFTISRDNAKNNVYLQMNSLKPEDTAVYYCAARVRSELIKRYYWGQGSQVTVSS
- polyreactivity (PSR sort gate): high polyreactivity

Sequence: QVQLEDSRGGLVQAGGSLRLSCAASGLILASYAMGWNRQAQGKERQLVSAISRSGGSTYYEDSVKVRFTISRDNAKITVYLQMKSLKPEHTAVYYFAAKYPPKTPVNTYGNSFYYWGQGTQVTVSS
- polyreactivity (PSR sort gate): low polyreactivity

Sequence: QVQLVESGGGLVQAGGSLRLSCGGSGNSFNSYALGWYRQAPGKEREFVAAISGSGSSTYYADSVMGRFTISRDNAKNTVYLQINSLKPEDTAVYYCAVPYYKRYIWSNRDYWGQGTQVTVSS
- polyreactivity (PSR sort gate): high polyreactivity

Sequence: QVQLQESGGGLVQAGGSLRLSCAASGSIYDDTYMGWYRQAPGKERELVATIDSGSTTNYADSVKGRITISRDNAKYTVYLQMNSLKPEDTAVYYCAAADSHIDYFDYWGQGTQVTVSS
- polyreactivity (PSR sort gate): low polyreactivity

Sequence: QVQLVESGGGLVQAGGSLRLSCAASGRIFYLYTMAWYRQAPGKERELVAAITWSGGRTFYADSVKGRFTISRDNAKNTVYLQMNSLKPEDTAVYYCAARAYDSVGKYYYWGQGTQVNVSS
- polyreactivity (PSR sort gate): high polyreactivity

Sequence: QVQLVESGGGLVQAGGSLRLSCDASGRTFKQNAMGWYRQAPGKERELVATIRNGVNTNYEDSVKGRFTISRDNAKNTVYLQMNSLKPEDTAVYYCAARYWQAHAFQGNTGYSWQYGYWGQGTQVTVSS
- polyreactivity (PSR sort gate): high polyreactivity

Sequence: QVQLVESGGGLVQAGGSLRLSCAASGFFLGQYTMGWYRQAPGKERELVAAISSSGSTNYADSVKGRFTISRDNAKNTVYLQMNSLKPEDTAVYYCSIAGIRHVTSKFKGYHFGYWGQGTQVTVSS
- polyreactivity (PSR sort gate): low polyreactivity

Sequence: QVQRVESGGGLVQAGGSLRLSCAASGIIFPHNAMGWYRQAPGKERELVATISRSGARTYYADSVKGRFTISRDNAKNTVYLQMNSLKPEDTAVYYCAVQRLVYVYGAYDYWGQGTQVTVSS
- polyreactivity (PSR sort gate): high polyreactivity

Sequence: QVQLVESGGGLVQAGGSLRLSCAASGLTFPLYAMGWYRQAPGKEREFVAAITVSGVSTSYADSVKGRFTISRDNAKNTVYLQMNSLKPEDTAVYYCAADYYIWTYWDVYYWGQGTQVTVSS
- polyreactivity (PSR sort gate): high polyreactivity

Sequence: QDQLVESGGGLVQAGGSLRLSCAASGITLQLNAMGWYIQAPGKEREFVARISISGGRTYYADSVKGRFTISRDNAKNTVYLQMNSLKPEDTAVYYCAARVGRGYREYGYWGQGTQVTVSS
- polyreactivity (PSR sort gate): high polyreactivity

Sequence: QVQLVESGGGLVQAGGSLRLSCAASGSTFTYYAMGWYRQSPGKERELVAAISWRGGSTYYADSVKGRFTISRDNAKNTVYLQMNSLKPEDNAVYYCAASRTFYRAVTQTGSPMDYWGQGTQVTVSS
- polyreactivity (PSR sort gate): high polyreactivity

Sequence: QVQVVESGGGLVQAGGSLRLSCAASGSTFQYYAMGWYRQAPGKEREFFAAITWSGGRTYYADSVKGRFTISRDNAKNTVYLQMKSLKPEDTAVYYCAADIDGVWIPYEYDYWGQGTQGTVSS
- polyreactivity (PSR sort gate): low polyreactivity

Sequence: QVQLVESGGGLVQAGGSLRLSCAASGSTFPANAMGWYRQAPGKERELVATISWSGGRTYYADSVKGRFTISRDNAKNTVYIQMNSLKPEDTAVYYCAAYPLYRRRWTGDYWGQGTQVTVSS
- polyreactivity (PSR sort gate): high polyreactivity

Sequence: QVQLVESGGGLVQAGGSLRLSCAPSGFFFYSNTMGWYRQAPGKERELVDTISKRSGNTYYADSVKGRFTISRDFAKNTVYLQMNSLKPEDTSVYYCAADFWVRHKMWYPYTSIQAYNYWGQGTQVTVSS
- polyreactivity (PSR sort gate): high polyreactivity

Sequence: QVQLVESGGGLVQAGGSLRLSCAASGSTFYEKAMGWYRQAPGKEREFVAAITQSGGSTYYADSVKGRFTISRDNAKNTVYLQMNSLKPEDTAVYYCAKVWPKHYRSLGYGYWGQGTQVTVSS
- polyreactivity (PSR sort gate): low polyreactivity

Sequence: QVQLVESGGGLVQAGGSLRLSCAASGRIFGVNVMGWYRQAPGKERELVAGINSSGGSTYYADSVKGRFTISRDNAKNTVYLQMNSLKPEDTAVYYCDVRSIWRYGYWGQGTQVTVSS
- polyreactivity (PSR sort gate): high polyreactivity

Sequence: QVQLVESGGGLVQAGGSLRVSCAASGSIFIVYAMGWYRQAPGKDRELVATISSGGSTNYAVSVKGRFTISRDNAKNTVYVQMNTLKPEATAVYYCAAESYWGSGLVPGYDYWGQGTQGTVSS
- polyreactivity (PSR sort gate): low polyreactivity

Sequence: QVQLVESGGGLVQAGGSLRISCDASGSIFELNAMGWYRQAPGKERELVAAISSGSTYYADSVKGRFTITRDNAKNTVYLQMNSLKPVDTAVYYCAKRWRRRFVDVWSLYDYWGQCTQVTVSS
- polyreactivity (PSR sort gate): low polyreactivity

Sequence: QVQLVESGGGLVQAGGSLRLSCAASGRTFGRYAMGWYRQAPGKERELVAVINGGGSTYYADSVKGRFTISRDNAKNTVYLQMKSLKPEDTAVYYCNAGYYWGQGTQVTVSS
- polyreactivity (PSR sort gate): high polyreactivity

Sequence: QVQLVESGGGLVQAGGSLRLICAASRGIFGQYVMGWYRQAPGKERELVAPISSGGNTYADSVKGRFTISRDNAKNTVYLHMNSLKPEDTAVYYCAAPLTGIVEYDYWGQGTQVTVSS
- polyreactivity (PSR sort gate): low polyreactivity

Sequence: QVQLVESGGGLVQAGGSLRLSCAASGFTFKYYAMGWYRPAPRKERELVADITRSGGSTYYADSVKGRFTISRDNAKNTVYLQMNSLKPEDTAGYYCAVDPVRYPYSYDYWGQGTQVTGSS
- polyreactivity (PSR sort gate): high polyreactivity

Sequence: QVQLVESGGGLVQAGGSLRLSCAASGFILGSNVMGWYRQAPGKERELVAAISYSGGSTYYADSVKGRFTISRDNAKNTVYLQMNSLKPEDTAVYYCARRLTREYDYWGQGTQVTVSS
- polyreactivity (PSR sort gate): low polyreactivity

Sequence: QVQLVESGGGLVQAGGSLRLSCAASGSTFLNYAMGWSRQAPGKERELVAAISGSTTRTYYADSVKGRFTISRDNAKNPVYLQMNSLKPEDTAVYYCAARVRYPPYRSSDGQRAGYWGQGTQVTVSS
- polyreactivity (PSR sort gate): high polyreactivity

Sequence: QVHLVESGGGLVQAGGSLRLSCAASGSTFFYYAMGWYRQAPGKERELVAAISNSGGNTFYADSVKGRFTISRDNAKNTVYLQMNSLKPEDTAVYYCAADEIGHFQWRDGDYWGQGTQVTVSS
- polyreactivity (PSR sort gate): low polyreactivity

Sequence: QVQLVESGGGLVQAGGSLRLSCAASGRIFGPYVMGWYRQAPGKERELVAAINRRGGSTYYADSVKGRFTISRDNAKNTVYLQMNSLKPEDTAVYYCAAKKATVVYRMEYWGQGTQVTVSS
- polyreactivity (PSR sort gate): high polyreactivity

Sequence: QVQLVESGGGLDQAGGSLRLSCAASGSTFDTYAMGGYRQAPGKERELVAAISVSGTSTSYADSVKGRFTISRDNAKNTVYLQMNILNPEDTAVYYCIATDFSRNPGYARPEYDYWGQGTQVTVSS
- polyreactivity (PSR sort gate): low polyreactivity

Sequence: QVQLVESGGGLVQAGGSLRLSCAASGFIFDYNTMGWYRQAPGKERELVADISGGGGRTYYADSVKGRFTISRDNAKNTVYLQMNSLKPEDTAVYYCAALGFYHHAWWISYDYWGQGTQVTVSS
- polyreactivity (PSR sort gate): low polyreactivity

Sequence: QVQLVESGGGLVQAGGSLRLSCAASGSIYASNTMGWYRQAPGKERELVAGITKIGSSTYYADSVKGRFTISRDNAKNTVYLQMNSLKPEDTAVYYCNAYGPNIYSSRYDYWGQGTQVTVSS
- polyreactivity (PSR sort gate): low polyreactivity

Sequence: QVQLVESAARLVQAGGSLRLSCAASGFTFKKYAMGWYRQAPGKARELVASITWSGGSTSYADSVKGRFTISRDTAKNTVYLLMNSLKPEDTAVYYCAAATFVYRLRYNRFDYWGQGTQETVSS
- polyreactivity (PSR sort gate): high polyreactivity
